The numbers were not newly measured in publication PMC10825016, which cites them from elsewhere.

Where two headings read alike, the source gives them in different places.

Series [1] concerns the target GrpE (Escherichia coli) (UniProt P09372).
The target is the same in series [2]. This is another data set of the same source.

Sequence of GrpE (Escherichia coli) (P09372 whole entry): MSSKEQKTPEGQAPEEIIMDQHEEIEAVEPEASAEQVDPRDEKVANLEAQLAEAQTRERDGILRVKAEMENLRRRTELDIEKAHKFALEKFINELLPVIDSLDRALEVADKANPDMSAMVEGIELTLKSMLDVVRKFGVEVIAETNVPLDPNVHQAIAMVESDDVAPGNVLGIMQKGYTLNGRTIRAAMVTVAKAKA
Sequence of DnaK (P0A6Y8 2-638): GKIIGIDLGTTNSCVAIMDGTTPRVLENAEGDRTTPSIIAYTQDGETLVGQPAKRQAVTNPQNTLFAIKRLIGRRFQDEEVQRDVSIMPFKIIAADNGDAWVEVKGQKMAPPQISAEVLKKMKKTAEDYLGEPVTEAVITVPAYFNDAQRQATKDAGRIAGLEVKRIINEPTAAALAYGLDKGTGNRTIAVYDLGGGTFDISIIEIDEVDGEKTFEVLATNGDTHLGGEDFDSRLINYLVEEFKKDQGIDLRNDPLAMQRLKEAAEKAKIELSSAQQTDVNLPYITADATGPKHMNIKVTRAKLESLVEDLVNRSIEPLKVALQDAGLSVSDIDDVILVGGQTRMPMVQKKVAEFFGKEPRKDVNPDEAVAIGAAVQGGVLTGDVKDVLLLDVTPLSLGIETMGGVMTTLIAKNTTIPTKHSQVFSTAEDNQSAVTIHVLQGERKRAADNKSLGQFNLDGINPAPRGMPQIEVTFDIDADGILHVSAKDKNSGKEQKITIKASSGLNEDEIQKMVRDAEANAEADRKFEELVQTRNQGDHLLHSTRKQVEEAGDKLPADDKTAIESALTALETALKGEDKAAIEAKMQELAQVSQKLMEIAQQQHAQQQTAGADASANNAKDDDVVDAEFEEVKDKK

A word on the Kd: it is the constant that tells how readily two partners part at equilibrium. In the case of DnaK (from UniProt P0A6Y8), the figures for the equilibrium dissociation constant (Kd) in series [1] and in series [2] were 11 nM and 220 nM, respectively.
